# From patent US20200157194A1 (Regeneron, published 2020)
# Where a chain is given by its changes, count along the chain named.
# T1: human GREM1 (hGREM1-His; SEQ ID NO: 595) (human, UniProt O60565 25-184)
# T1 construct: also called biotin-hGREM1-His; recombinant human GREM1 protein
# T1 sequence: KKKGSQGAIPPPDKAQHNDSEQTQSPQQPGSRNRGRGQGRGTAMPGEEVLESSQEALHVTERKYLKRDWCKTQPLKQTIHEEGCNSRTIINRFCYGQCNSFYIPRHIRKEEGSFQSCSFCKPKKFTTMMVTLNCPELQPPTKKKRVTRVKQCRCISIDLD
# T2: recombinant human GREM1 (hGREM1-His; C-terminal 10His tagged, R&D, #5190-GR) (human, UniProt O60565 25-184, limits assumed)
# T2 sequence: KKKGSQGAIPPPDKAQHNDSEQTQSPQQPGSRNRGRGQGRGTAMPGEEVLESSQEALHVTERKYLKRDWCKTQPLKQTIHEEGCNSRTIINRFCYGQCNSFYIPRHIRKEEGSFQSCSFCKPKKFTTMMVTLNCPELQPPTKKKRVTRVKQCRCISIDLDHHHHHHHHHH
# B1: H4H6248P (antibody, human IgG4, V domains shown)
# VH: QVQLVESGGGVVQPGRSLRLSCAASGFTFSNYGMHWVRQVPGKGLEWVAVIWYDGSNKYYADSVKGRFTISRDNSKNTLYLQMNSVRAEDTAVYYCARDDYGDSPGFDYWGQGTLVTVSS
# VL: EIVMTQSPATLSVSPGERATLSCRASQSVSSSLAWYQQKPGQAPRLLIYDASTRATGIPARFSGSGSGTEFTLTISGLQSEDFAVYYCQQYNNWPPWTFGQGTKVEIK
# notes: H4H prefix = human IgG4 Fc
# B2: H4H6270P (antibody, human IgG4, V domains shown)
# VH: QVQLVESGGDVVQPGRSLRLSCAASGFTFSSYGMHWVRQAPGKGLEWVAIIWNDGSNKYYTDSVKGRFTISRDNSKNTLYLQMNGLRAEDTAIYYCARDQDQFDYWGQGTLVTVSS
# VL: B1 VL with V29I, S31T, S32N, Q37R, E70D, G77S, N92S, W97Y, V105L
# notes: H4H prefix = human IgG4 Fc
# B3: H4H6251P (antibody, human IgG4, V domains shown)
# VH: B1 VH with R16K, N31R, V40A, V86L, E89D, V93M, Y109F
# VL: B1 VL with S32N, S65T, G77S, V85L, N92D, N93D
# notes: H4H prefix = human IgG4 Fc
# B4: H4H6256P (antibody, human IgG4, V domains shown)
# VH: B1 VH with N31A, V40G, S85R, V86L, Y109H
# VL: B1 VL with S32E, I48L, D50G, G77S, N92S
# notes: H4H prefix = human IgG4 Fc
# B5: H4H6260P (antibody, human IgG4, V domains shown)
# VH: QVQLVESGGGVVQPGRSLRLSCAASGFTFSTYGMHWVRQAPGKGLEWVAIIWYDGSNYYYADSVKGRFTISRDNSKNTLYLQMNSLRAEDTAVYYCAREDRNDVFDIWGQGTMVTVSS
# VL: EIVLTQSPATLSLSPGERATLSCRASQSVSSFLAWYQQKPGQAPRLLIYDSSNRATGIPARFSGSGSGTDFTLTISSLEPEDFAVYYCQQLSNWPPITFGQGTRLEIK
# notes: H4H prefix = human IgG4 Fc
# B6: H4H6252P (antibody, human IgG4, V domains shown)
# VH: QVQLVESGGGVVQPGRSLRLSCAASGFTFSNYGMHWVRQAPGRGLEWVAVIWFDGSNKYYADSVKGRFTISRDNSKNTLYLQMNSLRSEDTAVYYCTRDDYGDYDYPFDYWGQGTLVTVSS
# VL: DIQMTQSPSSLSASVGDRVTITCRASQGIRNDLGWYQQKPGKAPKRLIYAASSLQSGVPSRFSGSGSGTEFTLTISSLQPEDFATYYCLQYNTYPPFTFGPGTKVDIK
# notes: H4H prefix = human IgG4 Fc; also called H4H6252S
# B7: H2bM2890N (antibody, mouse IgG2, V domains shown)
# VH: QVQLVESGGGVVQPGRSLRLTCAASGFTFSSFGMHWVRQAPGKGLEWVAIIWYDGSNKYYADSVKGRFTISRDNSKNTLYLQMNSLRAEDTAVYYCAREDNWTRDYFDYWGQGTLVTVSS
# VL: B5 VL with S31N, S51A, L91R, I97L, T98P, Q101G, R104K, L105V
# notes: H2M prefix = mouse IgG2 Fc (here H2bM); also called H2M2890N
# B8: H2bM2785N (antibody, mouse IgG2, V domains shown)
# VH: EVQLLESGGGLVQPGGSLRLSCAASGFTFSSYVMNWVRQAPGKGLEWVSAISGSGGSTSYADSVKGRSTISRDNSKNTLYLQMNSLRAEDTAVYYCAKGDIAAIVFDAFDIWGQGTMVTVSS
# VL: DIQMTQSPSSLSASVGDRVTITCQASQDISNCLNWYQHKPGKAPKLLIYDASYLETGGPSRFSGSGSGTDFTFTIRSLQPEDFATYYCQQYDNLPYTFGQGTKLEIK
# Biological target: T1, human GREM1 (hGREM1-His; SEQ ID NO: 595)
# Assay: competition ELISA, biotin-hGREM1-His (100 pM) binding to coated hBMP4
# Protocol: Data were analyzed using a sigmoidal dose-response model within Prism™ software. […] The absorbance values of the wells containing the highest concentration for each antibody were used to determine the percent maximum blocking.
% blocked at maximum Ab tested (20 nM),IC50,Binder
62%,0.21 nM,B1
62%,1.9 nM,B2
62%,0.11 nM,B3
75%,0.087 nM,B4
87%,< 0.025 nM,B5
53%,0.19 nM,B6

# Biological target: T1, human GREM1 (hGREM1-His; SEQ ID NO: 595)
# Assay: SPR, Biacore T200, 25 C, mAb captured, hGREM1-His injected;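 also: Heparin-supplemented HBS-EP+ used as running buffer, association and dissociation phases followed, Kd computed as koff divided by kon and half-life derived from koff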
# Protocol: (§1) Kinetic experiments were carried out using HBS-EP+heparin [10 mM HEPES, 150 mM NaCl, 3 mM EDTA, 0.05% (v/v) surfactant P20, 10 μg/ml heparin sodium salt, pH 7.4] as both the running buffer and the sample buffer. […] Antigen-antibody association was monitored for 150 seconds while dissociation in buffer was monitored for 420 seconds. Kinetic analysis was performed using Scrubber software version 2.0a or Biacore T200 evaluation software v1.0 to determine kₐ and kd values. KD and t_{1/2} were then calculated from the experimentally determined kₐ and kd values as KD=kd/kₐ and t_{1/2}=In(2)/kd.
Kd,koff,kon,t1/2,Binder
1.54 nM,7.73e-05 s⁻¹,50300 M⁻¹ s⁻¹,149 min,B1
4.08 nM,0.000175 s⁻¹,42900 M⁻¹ s⁻¹,66 min,B2
23.1 nM,0.000652 s⁻¹,28200 M⁻¹ s⁻¹,18 min,B3
1.19 nM,0.000107 s⁻¹,90000 M⁻¹ s⁻¹,108 min,B4
130 nM,0.001 s⁻¹,10000 M⁻¹ s⁻¹,11.6 min,B7
0.669 nM,6.51e-05 s⁻¹,97400 M⁻¹ s⁻¹,177 min,B5
1.02 nM,7.58e-05 s⁻¹,74600 M⁻¹ s⁻¹,152 min,B6

# Biological target: T2, recombinant human GREM1 (hGREM1-His; …)
# Assay: cell-based or functional assay
row,"IC50 [M], inhibition of hGREM1-His, W-20-17/BRE-luc luciferase (100 pM hBMP4, 10 nM hGREM1-His)",Binder
1,5.3e-10 M,B1
2,5.4e-10 M,B2
3,6.3e-10 M,B3
4,5.4e-10 M,B4
5,4.6e-10 M,B5
6,8.2e-10 M,B6

# Biological target: T2, recombinant human GREM1 (hGREM1-His; …)
# Assay: BLI Octet, mAb captured, 100 nM GREM1 without vs with 5 uM heparin;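 also: octet Red96 biolayer interferometry at 25 °C, antibodies captured on anti-human IgG Fc biosensors, association of GREM1 measured with versus without heparin in HEPES-buffered saline, pH 7.4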
# Protocol: (§2) Binding measurements were conducted using an Octet Red96 label-free biomolecular interaction instrument (ForteBio). All experiments were performed at 25° C. using plate agitation at 1000 rpm. Solutions were made in an aqueous buffer containing 10 mM HEPES, 150 mM NaCl, 3 mM EDTA 0.05% P20, 0.1 mg/mL BSA and adjusted to pH of 7.4 (HBST buffer).
# (§3) Anti-Human IgG Fc Capture biosensors (ForteBio) were separately loaded with 50 μg/mL solutions of 24 different anti-GREM1 antibodies for 60 seconds. Following a 30 second wash, duplicate biosensors for each antibody were submerged into wells containing either 100 nM GREM1 solutions or 100 nM GREM1 solutions containing 5 μM of heparin, measuring association for 300 seconds.
Reduction in Signal from Heparin at 30 sec,Reduction in Signal from Heparin at 300 sec,Binder
0.17 nm,0.05 nm,B1
0.15 nm,0.06 nm,B2
0.24 nm,0.09 nm,B3
0.13 nm,0.02 nm,B4
0.17 nm,0.05 nm,B5
0.19 nm,0.09 nm,B6

# Biological target: T2, recombinant human GREM1 (hGREM1-His; …)
# Assay: BLI Octet, mAb captured, 100 nM GREM1 + 5 uM heparin;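 also: octet Red96 biolayer interferometry at 25 °C, antibodies captured on anti-human IgG Fc biosensors, pH 7.4 HEPES buffer with 0.1 mg/mL BSA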
# Protocol: as §2, §3
Binding Signal with 30 sec Association,Binding Signal with 300 sec Association,Binder
0.04 nm,0.37 nm,B1
0.05 nm,0.33 nm,B2
0.03 nm,0.36 nm,B3
0.07 nm,0.38 nm,B4
0.07 nm,0.37 nm,B5
0.04 nm,0.35 nm,B6

# Biological target: T1, human GREM1 (hGREM1-His; SEQ ID NO: 595)
# Assay: SPR, Biacore T200, 37 C, mAb captured, hGREM1-His injected;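 also: HBS-EP running buffer containing heparin, association and dissociation phases tracked, KD computed as koff over kon and half-life derived from koff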
# Protocol: as §1
Kd,koff,kon,t1/2,Binder
5.69 nM,0.000487 s⁻¹,85500 M⁻¹ s⁻¹,24 min,B1
6.79 nM,0.00065 s⁻¹,95800 M⁻¹ s⁻¹,18 min,B2
275 nM,0.00694 s⁻¹,25300 M⁻¹ s⁻¹,2 min,B3
4.08 nM,0.000466 s⁻¹,114000 M⁻¹ s⁻¹,25 min,B4
1.71 nM,0.000285 s⁻¹,166000 M⁻¹ s⁻¹,41 min,B5
4.14 nM,0.000459 s⁻¹,111000 M⁻¹ s⁻¹,25 min,B6

# Biological target: T2, recombinant human GREM1 (hGREM1-His; …)
# Assay: BLI Octet, mAb captured, 100 nM GREM1;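 also: octet Red96 biolayer interferometry at 25 °C in pH 7.4 HEPES saline buffer, antibodies held on anti-human IgG Fc capture biosensors, then exposed to GREM1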
# Protocol: as §2, §3
Binding Signal with 30 sec Association,Binding Signal with 300 sec Association,Binder
0.21 nm,0.42 nm,B1
0.2 nm,0.39 nm,B2
0.27 nm,0.45 nm,B3
0.2 nm,0.4 nm,B4
0.24 nm,0.42 nm,B5
0.23 nm,0.44 nm,B6

# Biological target: T2, recombinant human GREM1 (hGREM1-His; …)
# Assay: cell-based or functional assay
# Remark: another data set of the same source
row,"hGREM1-His Inhibition IC50, M; W-20-17 cell differentiation assay (alkaline phosphatase)",Binder
1,5.6 nM,B1
2,3.1 nM,B2
3,11 nM,B3
4,5.7 nM,B4
5,3.3 nM,B5
6,6.1 nM,B6

# Biological target: T2, recombinant human GREM1 (hGREM1-His; …)
# Assay: cell-based or functional assay
# Remark: another data set of the same source
"IC50 [M], inhibition of hGREM1-His, W-20-17/BRE-luc luciferase (100 pM hBMP4, 10 nM hGREM1-His)","IC50 [M], inhibition of hGREM1-His, W-20-17/BRE-luc luciferase (200 pM hBMP4, 20 nM hGREM1-His)",Binder
2.1e-09 M,–,B7
–,2.7e-08 M,B8
